These results are taken from US20120101255A1.

For this test, the target named is Recombinant Cx43CT (carboxyl terminal domain of rat connexin43, residues 255-382, preceded by GPLG) (rat) (UniProt P08050). The experiment in a line: SPR on the carboxyl terminal domain of Cx43, peptide at 1.0 mM.
Chain of Recombinant Cx43CT (carboxyl terminal domain of rat connexin43, residues 255-382, preceded by GPLG) (rat) (P08050 other isoform, or with tags, fused parts or gaps limits assumed): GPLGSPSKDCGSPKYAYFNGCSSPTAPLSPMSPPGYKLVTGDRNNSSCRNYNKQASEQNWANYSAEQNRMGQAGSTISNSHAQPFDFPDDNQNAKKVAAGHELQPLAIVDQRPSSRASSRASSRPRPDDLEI

For the substance “AcRNP-NH2 (Identification No. 2502) (peptide)”, the Response (arbitrary units) is 4.6.
